Test results taken from IntAct's records for PubMed 10373560.

B1: Membrane-associated tyrosine- and threonine-specific cdc2-inhibitory kinase (Homo sapiens), Q99640 (parent)
chain: MLERPPALAMPMPTEGTPPPLSGTPIPVPAYFRHAEPGFSLKRPRGLSRSLPPPPPAKGSIPISRLFPPRTPGWHQLQPRRVSFRGEASETLQSPGYDPSRPESFFQQSFQRLSRLGHGSYGEVFKVRSKEDGRLYAVKRSMSPFRGPKDRARKLAEVGSHEKVGQHPCCVRLEQAWEEGGILYLQTELCGPSLQQHCEAWGASLPEAQVWGYLRDTLLALAHLHSQGLVHLDVKPANIFLGPRGRCKLGDFGLLVELGTAGAGEVQEGDPRYMAPELLQGSYGTAADVFSLGLTILEVACNMELPHGGEGWQQLRQGYLPPEFTAGLSSELRSVLVMMLEPDPKLRATAEALLALPVLRQPRAWGVLWCMAAEALSRGWALWQALLALLCWLWHGLAHPASWLQPLGPPATPPGSPPCSLLLDSSLSSNWDDDSLGPSLSPEAVLARTVGSTSTPRSRCTPRDALDLSDINSEPPRGSFPSFEPRNLLSLFEDTLDPT

Variants of: B1
Conditions: with ccnb1_human CCNB1, P14635
Sequence of ccnb1_human CCNB1, P14635 (P14635 whole entry): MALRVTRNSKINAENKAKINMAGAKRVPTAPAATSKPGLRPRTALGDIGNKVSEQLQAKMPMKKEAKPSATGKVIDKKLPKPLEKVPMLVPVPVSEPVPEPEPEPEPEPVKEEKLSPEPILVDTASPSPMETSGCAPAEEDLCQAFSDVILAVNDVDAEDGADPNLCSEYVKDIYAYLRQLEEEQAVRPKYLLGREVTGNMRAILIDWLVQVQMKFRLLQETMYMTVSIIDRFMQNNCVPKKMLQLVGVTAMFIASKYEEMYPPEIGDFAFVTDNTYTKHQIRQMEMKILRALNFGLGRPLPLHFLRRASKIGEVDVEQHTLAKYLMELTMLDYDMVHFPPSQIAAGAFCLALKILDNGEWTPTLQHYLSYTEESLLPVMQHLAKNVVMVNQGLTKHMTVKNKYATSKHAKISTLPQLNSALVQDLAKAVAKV

For R486A;N487A;L488A, which “effect of a mutation on the interaction” value is on record?
Its value is “decreasing interaction”.
